Numbering of substitutions follows the chain as printed.
B1: MPE33_S36A (antibody, V domains shown)
VH: QVQLQESGPGLVKPSQTLSLTCTVSGDSISNGAYCWNWVRQPAGKGLEWIGRIYPIGNTNYNPSLKSRVTISLDTSKNQFSLKLASVTAADTAVYYCAREARIFEGYYYYYYGLDVWGQGTTVTVSS
VL: EIVLTQSPATLSLSPGERATLSCRASQTISSYLAWYQQKPGQAPRLLISDVSKRATGIPARFSGSGSGTDFTLTISSLEPEDFAVYYCHQRSNWDTFGQGTKLEIK
B2: MPE33_C38A (antibody, V domains shown)
VH: B1 VH with A33S, C35A
VL: B1 VL
B3: MPE33_C38S (antibody, V domains shown)
VH: B1 VH with A33S, C35S
VL: B1 VL
B4: MPE33_N34S (antibody, V domains shown)
VH: B1 VH with N31S, A33S
VL: B1 VL
B5: MPE33_N34Q (antibody, V domains shown)
VH: B1 VH with N31Q, A33S
VL: B1 VL
B6: MPE33_N34S_C38Y (antibody, V domains shown)
VH: B1 VH with N31S, A33S, C35Y
VL: B1 VL
B7: MPE33_C38Y (antibody, V domains shown)
VH: B1 VH with A33S, C35Y
VL: B1 VL
B8: MPE8 (antibody, V domains shown)
VH: EVQLVESGGGLVKPGGSLRLSCAASGFTFSSYSMNWVRQAPGKGLEWVSSISASSSYSDYADSAKGRFTISRDNAKTSLFLQMNSLRAEDTAIYFCARARATGYSSITPYFDIWGQGTLVTVSS
VL: QSVVTQPPSVSGAPGQRVTISCTGSSSNIGAGYDVHWYQQLPGTAPKLLIYDNNNRPSGVPDRFSASKSGTSASLAITGLQAEDEADYYCQSYDRSLSGVFGTGTKVTVL

Columns and labels:
[1] = target: MPV pre-fusion F protein (conformationally stabilized, CAN97-83 MPV strain) (human metapneumovirus (hMPV), strain …, UniProt Q6WB98 19-489); assay: ELISA
Chain of MPV pre-fusion F protein (conformationally stabilized, CAN97-83 MPV strain) (Q6WB98 19-489): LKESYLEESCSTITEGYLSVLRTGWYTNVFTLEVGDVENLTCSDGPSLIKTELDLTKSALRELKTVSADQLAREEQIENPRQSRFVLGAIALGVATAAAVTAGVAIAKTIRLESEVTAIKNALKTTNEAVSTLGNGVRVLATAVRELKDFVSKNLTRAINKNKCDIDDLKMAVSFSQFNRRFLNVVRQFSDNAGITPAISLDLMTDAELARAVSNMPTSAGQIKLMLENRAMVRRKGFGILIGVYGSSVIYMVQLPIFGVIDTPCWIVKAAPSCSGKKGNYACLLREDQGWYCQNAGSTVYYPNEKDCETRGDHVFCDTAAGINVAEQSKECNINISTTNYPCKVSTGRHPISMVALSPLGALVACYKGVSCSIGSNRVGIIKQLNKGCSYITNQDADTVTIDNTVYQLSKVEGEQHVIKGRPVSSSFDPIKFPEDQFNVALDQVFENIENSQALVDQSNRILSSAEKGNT

PRE = PRE (human metapneumovirus (hMPV), strain …, UniProt Q6WB98 19-489); assay: ELISA; pre-fusion F
Chain of PRE (Q6WB98 19-489): as above

POST = POST (human metapneumovirus (hMPV), strain …, UniProt Q6WB98 19-489); assay: ELISA; post-fusion F
Chain of POST (Q6WB98 19-489): as above

Binder | EC50 [1] | EC50 (PRE) | EC50 (POST)
B1 | 2.31 ng/mL | – | –
B2 | 1.51 ng/mL | – | –
B3 | 2.39 ng/mL | – | –
B4 | 1.56 ng/mL | – | –
B5 | 1.96 ng/mL | – | –
B6 | 2.87 ng/mL | – | –
B7 | 2.5 ng/mL | – | –
B8 | – | 34.8 ng/mL | 769000 ng/mL

Source: US20240034772A1 (published 2024)
